In paper PMC5062967 (Nucleic Acids Research, 2016):

Molecular target: T1, human 5MP2 (ITC sample) (human, UniProt Q7L1Q6 1-419)
T1 sequence: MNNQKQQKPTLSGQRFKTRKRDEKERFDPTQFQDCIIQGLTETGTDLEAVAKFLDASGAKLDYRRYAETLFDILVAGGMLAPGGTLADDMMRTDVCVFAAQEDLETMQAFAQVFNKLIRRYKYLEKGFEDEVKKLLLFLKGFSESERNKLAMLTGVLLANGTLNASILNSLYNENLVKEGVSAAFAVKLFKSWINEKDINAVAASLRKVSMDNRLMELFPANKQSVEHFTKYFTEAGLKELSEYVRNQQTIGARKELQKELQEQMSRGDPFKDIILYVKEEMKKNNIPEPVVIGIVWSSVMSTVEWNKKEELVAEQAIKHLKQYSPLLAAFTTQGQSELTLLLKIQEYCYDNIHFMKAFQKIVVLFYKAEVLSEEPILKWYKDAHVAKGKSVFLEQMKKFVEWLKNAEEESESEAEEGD
Experiment: ITC

Kd: 1500 nM
B1: Human eIF2β_(53-136) carrying two K-boxes (domain or fragment)
chain: DLEADEEDTRKKDASDDLDDLNFFNQKKKKKKTKKIFDIDEAEEGVKDLKIESDVQEPTEPEDDLDIMLGNKKKKKKNVKFPDE
